In IntAct's records for PubMed 26418745:

B1: ALK tyrosine kinase receptor (Homo sapiens), Q9UM73 (parent)
chain: MGAIGLLWLLPLLLSTAAVGSGMGTGQRAGSPAAGPPLQPREPLSYSRLQRKSLAVDFVVPSLFRVYARDLLLPPSSSELKAGRPEARGSLALDCAPLLRLLGPAPGVSWTAGSPAPAEARTLSRVLKGGSVRKLRRAKQLVLELGEEAILEGCVGPPGEAAVGLLQFNLSELFSWWIRQGEGRLRIRLMPEKKASEVGREGRLSAAIRASQPRLLFQIFGTGHSSLESPTNMPSPSPDYFTWNLTWIMKDSFPFLSHRSRYGLECSFDFPCELEYSPPLHDLRNQSWSWRRIPSEEASQMDLLDGPGAERSKEMPRGSFLLLNTSADSKHTILSPWMRSSSEHCTLAVSVHRHLQPSGRYIAQLLPHNEAAREILLMPTPGKHGWTVLQGRIGRPDNPFRVALEYISSGNRSLSAVDFFALKNCSEGTSPGSKMALQSSFTCWNGTVLQLGQACDFHQDCAQGEDESQMCRKLPVGFYCNFEDGFCGWTQGTLSPHTPQWQVRTLKDARFQDHQDHALLLSTTDVPASESATVTSATFPAPIKSSPCELRMSWLIRGVLRGNVSLVLVENKTGKEQGRMVWHVAAYEGLSLWQWMVLPLLDVSDRFWLQMVAWWGQGSRAIVAFDNISISLDCYLTISGEDKILQNTAPKSRNLFERNPNKELKPGENSPRQTPIFDPTVHWLFTTCGASGPHGPTQAQCNNAYQNSNLSVEVGSEGPLKGIQIWKVPATDTYSISGYGAAGGKGGKNTMMRSHGVSVLGIFNLEKDDMLYILVGQQGEDACPSTNQLIQKVCIGENNVIEEEIRVNRSVHEWAGGGGGGGGATYVFKMKDGVPVPLIIAAGGGGRAYGAKTDTFHPERLENNSSVLGLNGNSGAAGGGGGWNDNTSLLWAGKSLQEGATGGHSCPQAMKKWGWETRGGFGGGGGGCSSGGGGGGYIGGNAASNNDPEMDGEDGVSFISPLGILYTPALKVMEGHGEVNIKHYLNCSHCEVDECHMDPESHKVICFCDHGTVLAEDGVSCIVSPTPEPHLPLSLILSVVTSALVAALVLAFSGIMIVYRRKHQELQAMQMELQSPEYKLSKLRTSTIMTDYNPNYCFAGKTSSISDLKEVPRKNITLIRGLGHGAFGEVYEGQVSGMPNDPSPLQVAVKTLPEVCSEQDELDFLMEALIISKFNHQNIVRCIGVSLQSLPRFILLELMAGGDLKSFLRETRPRPSQPSSLAMLDLLHVARDIACGCQYLEENHFIHRDIAARNCLLTCPGPGRVAKIGDFGMARDIYRASYYRKGGCAMLPVKWMPPEAFMEGIFTSKTDTWSFGVLLWEIFSLGYMPYPSKSNQEVLEFVTSGGRMDPPKNCPGPVYRIMTQCWQHQPEDRPNFAIILERIEYCTQDPDVINTALPIEYGPLVEEEEKVPVRPKDPEGVPPLLVSQQAKREEERSPAAPPPLPTTSSGKAAKKPTAAEISVRVPRGPAVEGGHVNMAFSQSNPPSELHKVHGSRNKPTSLWNPTYGSWFTEKPTKKNNPIAKKEPHDRGNLGLEGSCTVPPNVATGRLPGASLLLEPSSLTANMKEVPLFRLRHFPCGNVNYGYQQQGLPLEAATAPGAGHYEDTILKSKNSMNQPGP
partner: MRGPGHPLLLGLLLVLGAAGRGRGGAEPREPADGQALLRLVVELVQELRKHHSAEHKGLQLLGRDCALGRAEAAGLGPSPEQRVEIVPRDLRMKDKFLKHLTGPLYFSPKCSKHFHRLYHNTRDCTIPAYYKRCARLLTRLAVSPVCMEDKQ

Variants of: B1
Conditions: with alkl2_human ALKAL2, Q6UX46

Row | Variant | effect of a mutation on the interaction
1 | G740D | disrupting interaction strength
2 | G823D | disrupting interaction strength
3 | G893E | disrupting interaction strength
4 | G934D | disrupting interaction strength
